Test results: publication PMC2582951

Biological target: cerFP505 (ceriantharian fluorescent protein with an emission maximum at 505 nm) (deep sea ceriantharian (taxon Spirularia, species not determined))
Assay: SEC; elution profile of purified recombinant cerFP505; conditions as described in refs 43, 44

stoichiometry N: 4
Substance: cerFP505 (ceriantharian fluorescent protein with an emission maximum at 505 nm) (natural protein)
